Results published in patent US20240052006A1 (UNIVERSITY OF CHICAGO, published 2024).

Molecular target: T1, mouse plasma-derived SA (mouse SA, Sigma-Aldrich) (mouse, UniProt P07724 25-608)
T1 construct: The SA in the SPR assay was bought (Sigma-Aldrich, plasma-derived, without IL-4); It is not tied to the bought lot by name; also called mouse serum albumin; MSA
Assay: SPR (Biacore X100): murine FcRn immobilised by amine coupling on a C1 chip, mouse SA flowed at 4000 to 250 nM in pH 5.8 running buffer; Langmuir fit
Protocol: Murine FcRn recombinant protein (Acro Biosystems) was immobilized via amine coupling on a C1 chip (GE Healthcare) for ˜200 resonance units (RU) according to the manufacturer's instructions. SA-IL4 or SA (mouse SA, Sigma-Aldrich) was flowed at decreasing concentrations in the running buffer (0.01 M monobasic anhydrous sodium phosphate, pH 5.8, 0.15 M NaCl) at 30 μl/min. The sensor chip was regenerated with PBS, pH 7.4 for every cycle. Specific bindings of SA fusion proteins to FcRn were calculated by comparison to a non-functionalized channel used as a reference. Experimental results were fitted with Langmuir binding kinetics using BIAevaluation software (GE Healthcare).

Kd: 294 nM
koff: 0.0011 s⁻¹
kon: 3700 M⁻¹ s⁻¹
B1: Murine FcRn recombinant protein (Acro Biosystems) (receptor, mouse)
chain 1: SETRPPLMYHLTAVSNPSTGLPSFWATGWLGPQQYLTYNSLRQEADPCGAWMWENQVSWYWEKETTDLKSKEQLFLEALKTLEKILNGTYTLQGLLGCELASDNSSVPTAVFALNGEEFMKFNPRIGNWTGEWPETEIVANLWMKQPDAARKESEFLLNSCPERLLGHLERGRRNLEWKEPPSMRLKARPGNSGSSVLTCAAFSFYPPELKFRFLRNGLASGSGNCSTGPNGDGSFHAWSLLEVKRGDEHHYQCQVEHEGLAQPLTVDLDSSARSS
chain 2: IQKTPQIQVYSRHPPENGKPNILNCYVTQFHPPHIEIQMLKNGKKIPKVEMSDMSFSKDWSFYILAHTEFTPTETDTYACRVKHASMAEPKTVYWDRDM
notes: Bought from Acro Biosystems and immobilised by amine coupling on a C1 chip; also called Recombinant mouse FcRn; neonatal Fc receptor
